Data: the supplement of paper PMC7125110
± gives the standard error. For some assays here: Fewer inactive variants are shown than the library holds.

B1: glmS ribozyme (parent)
chain: AUAAAAGCGCCAGAACUACAGAAAUGUAGUUGACGAGGAGGAGGUUUAUCGAAUUUUCGGCGGAUGCCUCCAAA

Key:
Details in all cases: with glucosamine-6-phosphate
[1] = variants of: B1; experiment: kcat; higher = faster cleavage; RNA array
How it was run: (§1)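 Weighted Michaelis–Menten fits across concentrations supplied kcat and KM, based on kobs from one- or two-exponential decay fits to normalised per-tile medians. The data came from barcoded ribozyme variants transcribed in situ by E. coli RNA polymerase on sequenced MiSeq chips and tracked at 37 °C by a hybridised Cy3 probe. Glucosamine-6-phosphate (40 μM to 10 mM) in HEPES/KCl/Mg(OAc)2 buffer was flowed in.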

[2] = variants of: B1; experiment: self-cleavage kobs at 2500 uM GlcN6P; higher = faster cleavage; RNA array
How it was run: as §1

[3] = variants of: B1; experiment: self-cleavage kobs at 10000 uM GlcN6P; higher = faster cleavage; RNA array
How it was run: as §1

[4] = variants of: B1; experiment: self-cleavage kobs at 40 uM GlcN6P; higher = faster cleavage; RNA array
How it was run: as §1

[5] = variants of: B1; experiment: self-cleavage kobs at 160 uM GlcN6P; higher = faster cleavage; RNA array
How it was run: as §1

[6] = variants of: B1; experiment: self-cleavage kobs at 640 uM GlcN6P; higher = faster cleavage; RNA array
How it was run: as §1

[7] = variants of: B1; experiment: KM; higher = weaker cofactor use; RNA array
How it was run: as §1

Variant | kcat [1] [s⁻¹] | self-cleavage kobs at 2500 uM GlcN6P [2] [s⁻¹] | self-cleavage kobs at 10000 uM GlcN6P [3] [s⁻¹] | self-cleavage kobs at 40 uM GlcN6P [4] [s⁻¹] | self-cleavage kobs at 160 uM GlcN6P [5] [s⁻¹] | self-cleavage kobs at 640 uM GlcN6P [6] [s⁻¹] | KM [7] [µM]
G62U C70G | 1.57e-05 ± 2.7e-06 | – | – | – | – | – | –
A42C C67G | 8.04e-05 ± 1.5e-05 | 6.32e-05 ± 1.4e-05 | 6.4e-05 ± 4.6e-06 | – | – | – | –
G44C U46A | 7.73e-05 ± 1.3e-05 | 0.000108 ± 2.5e-05 | 7.15e-05 ± 9.9e-06 | < 1e-05 | – | – | –
C68A C71A | < 1e-05 | – | < 1e-05 | – | < 1e-05 | – | –
U46G U47A | 0.0123 ± 0.0053 | 0.00836 ± 0.0038 | 0.0106 ± 0.0026 | – | 0.00128 ± 0.00029 | 0.00231 ± 0.00046 | –
A15U U31G U47A | 0.000799 ± 0.00019 | 0.000221 ± 5.7e-05 | 0.000537 ± 8.1e-05 | – | – | 0.000105 ± 2.5e-05 | 5260 ± 2100
A36U G59A G63U C71U | < 1e-05 | < 1e-05 | – | – | – | – | –
U31G U56G C71A | 0.000443 ± 5.1e-05 | 0.000191 ± 4.5e-05 | 0.00035 ± 9e-05 | – | – | – | 3050 ± 740
G29C A48C | 1.23e-05 ± 3.5e-06 | – | – | < 1e-05 | < 1e-05 | – | –
U54C C68A | 2.49e-05 ± 6.3e-06 | – | – | < 1e-05 | – | – | –
A39C U46A | 0.000341 ± 6.3e-05 | 0.000209 ± 3.4e-05 | 0.000249 ± 3.6e-05 | – | – | 5.57e-05 ± 1e-05 | 2880 ± 980
A15U G59A | 1.53e-05 ± 4.8e-06 | – | – | < 1e-05 | – | – | –
A53U A64C | 8.67e-05 ± 2.2e-05 | 9.3e-05 ± 1.6e-05 | 7.17e-05 ± 1.1e-05 | – | – | – | –
C50G U54G | 4.74e-05 ± 1.5e-05 | 3.85e-05 ± 1.5e-05 | – | – | 7.22e-05 ± 1.2e-05 | 4.18e-05 ± 1.1e-05 | –
A14U G38A | < 1e-05 | – | < 1e-05 | – | – | – | –
A14G U45G | 0.0225 ± 0.0076 | 0.00864 ± 0.003 | 0.0175 ± 0.0071 | 0.000286 ± 0.0001 | 0.000908 ± 0.00024 | 0.00617 ± 0.0025 | 3450 ± 1400
C16U U57C | 0.000329 ± 0.00013 | 8.73e-05 ± 1.7e-05 | 0.00024 ± 3.4e-05 | – | – | 5.65e-05 ± 1.1e-05 | –

Variant | kcat [1] [s⁻¹] | self-cleavage kobs at 2500 uM GlcN6P [2] [s⁻¹] | self-cleavage kobs at 10000 uM GlcN6P [3] [s⁻¹] | self-cleavage kobs at 40 uM GlcN6P [4] [s⁻¹] | self-cleavage kobs at 160 uM GlcN6P [5] [s⁻¹] | self-cleavage kobs at 640 uM GlcN6P [6] [s⁻¹] | KM [7] [µM]
A12U G60A | 8.33e-05 ± 8e-06 | 4.12e-05 ± 1e-05 | 7.02e-05 ± 8.4e-06 | – | – | 2.88e-05 ± 1.4e-05 | 2040 ± 700
A6U A15G | 0.000987 ± 0.00028 | 0.0002 ± 3.8e-05 | 0.000441 ± 5.1e-05 | – | – | 4.1e-05 ± 1.2e-05 | –
C58A C70A | 4.48e-05 ± 1.6e-05 | 6.58e-05 ± 1.4e-05 | – | – | 3.09e-05 ± 1.1e-05 | 5.32e-05 ± 1.4e-05 | –
G9U C61A | 0.00139 ± 0.00021 | 0.000927 ± 0.00013 | 0.00121 ± 0.00023 | 4.72e-05 ± 9.6e-06 | 0.00013 ± 2.7e-05 | 0.000373 ± 5.1e-05 | 1500 ± 360
A48U C67U | 0.00022 ± 1.3e-05 | 0.000135 ± 1.7e-05 | 0.00018 ± 2e-05 | – | – | 5.32e-05 ± 7.6e-06 | 1890 ± 230
U30A U54C | 0.00409 ± 0.0013 | 0.00215 ± 0.00045 | 0.00543 ± 0.001 | 0.000151 ± 2.1e-05 | – | 0.00174 ± 0.00027 | 1040 ± 490
A12C C70A | 0.000198 ± 2.9e-05 | 0.000174 ± 1.9e-05 | 0.000162 ± 2e-05 | – | – | 6.98e-05 ± 1e-05 | 1030 ± 390
C10U A52G | < 1e-05 | – | – | – | – | – | –
A14U C50U C68A | 3.75e-05 ± 1.4e-05 | – | < 1e-05 | – | – | – | –
G40A U46A | 0.00064 ± 0.00019 | 0.000422 ± 9.6e-05 | 0.000495 ± 9.6e-05 | – | – | 0.000254 ± 5.4e-05 | –
A39G G44C | 0.000507 ± 6.5e-05 | 0.000327 ± 6.4e-05 | 0.000394 ± 4.8e-05 | – | – | 0.000101 ± 1.9e-05 | 2450 ± 660
U31C U55A | 0.00809 ± 0.0017 | 0.00333 ± 0.00051 | 0.00623 ± 0.00059 | 0.000152 ± 2.3e-05 | 0.000289 ± 6.8e-05 | 0.00126 ± 0.00017 | 3270 ± 1100
G40A U47A | 0.00464 ± 0.00058 | 0.0033 ± 0.00065 | 0.00398 ± 0.00077 | 0.000132 ± 2.1e-05 | – | 0.00126 ± 0.00024 | 1440 ± 270
G44A U55A | 0.000528 ± 5e-05 | 0.000286 ± 6.8e-05 | 0.000437 ± 6.1e-05 | – | 5.44e-05 ± 2.2e-05 | 0.000113 ± 2.3e-05 | 2150 ± 420
A12C G66U C70U | 0.00136 ± 0.00036 | 0.00128 ± 0.00028 | 0.000992 ± 0.00028 | 3.71e-05 ± 1.5e-05 | – | 0.000496 ± 0.00012 | 1190 ± 570
A12C A42G | 0.0188 ± 0.0076 | 0.0085 ± 0.0026 | 0.0248 ± 0.0036 | 0.00118 ± 0.00019 | 0.00222 ± 0.00053 | 0.00579 ± 0.0016 | –
A12G U56C | 0.000482 ± 5.2e-05 | 9.57e-05 ± 1.7e-05 | 0.000244 ± 3.4e-05 | – | – | 3.18e-05 ± 1.4e-05 | 9850 ± 1600
